# Measurements: PMC8556674
# Key:
# mchr-Miro2 (human) [1] = target: mchr-Miro2 (human) (UniProt Q8IXI1)
# mchr-Miro2 A13V (human) = mchr-Miro2 A13V (human) (UniProt Q8IXI1)
# mchr-Miro2 (human) [2] = target: mchr-Miro2 (human) (UniProt Q8IXI1); remark: listed apart in the source
# Sequence of mchr-Miro2 (human) (Q8IXI1 whole entry): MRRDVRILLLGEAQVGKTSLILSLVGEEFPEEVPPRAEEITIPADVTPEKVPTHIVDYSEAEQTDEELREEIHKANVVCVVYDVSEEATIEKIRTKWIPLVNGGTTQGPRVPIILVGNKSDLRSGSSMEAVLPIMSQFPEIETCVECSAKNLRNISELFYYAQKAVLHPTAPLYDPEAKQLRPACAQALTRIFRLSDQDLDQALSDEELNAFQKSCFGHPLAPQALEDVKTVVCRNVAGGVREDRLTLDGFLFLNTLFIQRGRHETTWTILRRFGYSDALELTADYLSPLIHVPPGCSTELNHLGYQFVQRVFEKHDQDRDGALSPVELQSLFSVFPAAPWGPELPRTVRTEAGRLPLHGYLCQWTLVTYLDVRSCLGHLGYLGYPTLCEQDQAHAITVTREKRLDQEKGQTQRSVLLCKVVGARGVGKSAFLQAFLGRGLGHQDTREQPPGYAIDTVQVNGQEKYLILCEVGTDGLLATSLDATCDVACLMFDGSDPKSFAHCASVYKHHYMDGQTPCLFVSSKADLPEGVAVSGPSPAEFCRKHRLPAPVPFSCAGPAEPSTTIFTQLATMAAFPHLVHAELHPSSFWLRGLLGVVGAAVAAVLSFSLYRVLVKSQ
# Sequence of mchr-Miro2 A13V (human) (Q8IXI1 whole entry A13V): as the sequence (Q8IXI1 whole entry) above, with A13V counted along it
"FRAP immobile fraction, live HeLa cells (mchr-Miro2 (human) [1])","FRAP t1/2 of mitochondrial GFP fluorescence, live HeLa cells (mchr-Miro2 (human) [1])","FRAP immobile fraction, live HeLa cells (mchr-Miro2 A13V (human))","PARF immobile fraction, HeLa cells, 25 uM digitonin (mchr-Miro2 (human) [2])",Substance
0.04,1.5 s,,,"MYO19^898–970-GFP mut. (K923, R927 and K928 mutated to alanine) (from UniProt Q96H55 898-970) (domain or fragment)"
0.03,9.2 s,0.14,0.33,MYO19^898–970-GFP (from UniProt Q96H55 898-970) (domain or fragment)
